Experimental data: patent publication US20050182242A1, “Global analysis of protein activities using proteome chips” (priority 2001, published 2005)

B1: Hxk1p: yeast hexokinase, GST fusion (protein, UniProt P04806 1-485, looked up)
Hexokinase-1: MVHLGPKKPQARKGSMADVPKELMDEIHQLEDMFTVDSETLRKVVKHFIDELNKGLTKKGGNIPMIPGWVMEFPTGKESGNYLAIDLGGTNLRVVLVKLSGNHTFDTTQSKYKLPHDMRTTKHQEELWSFIADSLKDFMVEQELLNTKDTLPLGFTFSYPASQNKINEGILQRWTKGFDIPNVEGHDVVPLLQNEISKRELPIEIVALINDTVGTLIASYYTDPETKMGVIFGTGVNGAFYDVVSDIEKLEGKLADDIPSNSPMAINCEYGSFDNEHLVLPRTKYDVAVDEQSPRPGQQAFEKMTSGYYLGELLRLVLLELNEKGLMLKDQDLSKLKQPYIMDTSYPARIEDDPFENLEDTDDIFQKDFGVKTTLPERKLIRRLCELIGTRAARLAVCGIAAICQKRGYKTGHIAADGSVYNKYPGFKEAAAKGLRDIYGWTGDASKDPITIVPAEDGSGAGAAVIAALSEKRIAEGKSLGIIGA
modifications: GST tag
notes: yeast hexokinase, GST fusion
B2: Eno2p: yeast enolase, GST fusion (protein, UniProt P00925 2-437, looked up)
Enolase 2: AVSKVYARSVYDSRGNPTVEVELTTEKGVFRSIVPSGASTGVHEALEMRDEDKSKWMGKGVMNAVNNVNNVIAAAFVKANLDVKDQKAVDDFLLSLDGTANKSKLGANAILGVSMAAARAAAAEKNVPLYQHLADLSKSKTSPYVLPVPFLNVLNGGSHAGGALALQEFMIAPTGAKTFAEAMRIGSEVYHNLKSLTKKRYGASAGNVGDEGGVAPNIQTAEEALDLIVDAIKAAGHDGKVKIGLDCASSEFFKDGKYDLDFKNPESDKSKWLTGVELADMYHSLMKRYPIVSIEDPFAEDDWEAWSHFFKTAGIQIVADDLTVTNPARIATAIEKKAADALLLKVNQIGTLSESIKAAQDSFAANWGVMVSHRSGETEDTFIADLVVGLRTGQIKTGAPARSERLAKLNQLLRIEEELGDKAVYAGENFHHGDKL
modifications: GST tag
notes: yeast enolase, GST fusion
B3: Pyc1p: pyruvate carboxylase 1 homolog with conserved biotin-attachment region (protein, UniProt P11154 1-1178, looked up)
Pyruvate carboxylase 1: MSQRKFAGLRDNFNLLGEKNKILVANRGEIPIRIFRTAHELSMQTVAIYSHEDRLSTHKQKADEAYVIGEVGQYTPVGAYLAIDEIISIAQKHQVDFIHPGYGFLSENSEFADKVVKAGITWIGPPAEVIDSVGDKVSARNLAAKANVPTVPGTPGPIETVEEALDFVNEYGYPVIIKAAFGGGGRGMRVVREGDDVADAFQRATSEARTAFGNGTCFVERFLDKPKHIEVQLLADNHGNVVHLFERDCSVQRRHQKVVEVAPAKTLPREVRDAILTDAVKLAKECGYRNAGTAEFLVDNQNRHYFIEINPRIQVEHTITEEITGIDIVAAQIQIAAGASLPQLGLFQDKITTRGFAIQCRITTEDPAKNFQPDTGRIEVYRSAGGNGVRLDGGNAYAGTIISPHYDSMLVKCSCSGSTYEIVRRKMIRALIEFRIRGVKTNIPFLLTLLTNPVFIEGTYWTTFIDDTPQLFQMVSSQNRAQKLLHYLADVAVNGSSIKGQIGLPKLKSNPSVPHLHDAQGNVINVTKSAPPSGWRQVLLEKGPAEFARQVRQFNGTLLMDTTWRDAHQSLLATRVRTHDLATIAPTTAHALAGRFALECWGGATFDVAMRFLHEDPWERLRKLRSLVPNIPFQMLLRGANGVAYSSLPDNAIDHFVKQAKDNGVDIFRVFDALNDLEQLKVGVDAVKKAGGVVEATVCFSGDMLQPGKKYNLDYYLEIAEKIVQMGTHILGIKDMAGTMKPAAAKLLIGSLRAKYPDLPIHVHTHDSAGTAVASMTACALAGADVVDVAINSMSGLTSQPSINALLASLEGNIDTGINVEHVRELDAYWAEMRLLYSCFEADLKGPDPEVYQHEIPGGQLTNLLFQAQQLGLGEQWAETKRAYREANYLLGDIVKVTPTSKVVGDLAQFMVSNKLTSDDVRRLANSLDFPDSVMDFFEGLIGQPYGGFPEPFRSDVLRNKRRKLTCRPGLELEPFDLEKIREDLQNRFGDVDECDVASYNMYPRVYEDFQKMRETYGDLSVLPTRSFLSPLETDEEIEVVIEQGKTLIIKLQAVGDLNKKTGEREVYFDLNGEMRKIRVADRSQKVETVTKSKADMHDPLHIGAPMAGVIVEVKVHKGSLIKKGQPVAVLSAMKMEMIISSPSDGQVKEVFVSDGENVDSSDLLVLLEDQVPVETKA

Tests used:
PI(4,5)P2 liposomes = experiment: Nitrocellulose membrane assay: adhered PI(4,5)P2 liposomes probed with GST fusion proteins; assay type: binding; settings: dilution series, anti-GST antibodies, ECL
Source text: A. PI(4,5)P2 liposomes were first adhered to a nitrocellulose membrane, which was blocked by BSA; a dilution series of Rim15p, Eno2p, and Hxk1p, and a GST control were used to probe the membrane. The bound proteins were detected using the anti-GST antibodies and an enhanced chemiluminescence (“ECL”) kit.
Therefore, six proteins, i.e., Rim15p, Eno2p, Hxk1p, Sps1p, Yg1059wp, and Gcn2p, were further tested for phosphoinositol binding using two types of standard assays (Williamson, 2000, Nat. Struct Biol. 7(10):834-7). For Rim15p, Eno2p, and Hxk1p, PI(4,5)P2 liposomes were first adhered to a nitrocellulose membrane, which was then blocked by BSA; different amounts of the GST fusion proteins and a GST control were used to probe the membrane, and bound proteins were detected using anti-GST antibodies. […] We also carried out the reverse assay for four GST fusion proteins, Rim15p, Sps1p, Yg1059wp, and Gcn2p (Guerra et al., 2000, Biosci. Rep. 20: 41). Different amounts of these purified proteins were spotted onto nitrocellulose filters and probed with the six different liposomes (FIG. 5B). The bound liposomes were detected using a horseradish peroxidase (“HRP”)-conjugated streptavidin.

[1] = test system: phospholipids (phosphatidylinositols vs phosphatidylcholine); experiment: Proteome chip lipid-binding screen, overall analysis of six liposomes (PI/PC specificity); settings: phospholipid liposome probes
Source text: FIGS. 4A-4D. Analysis of the phosphatidylinositol-binding proteins. To determine the phosphatidylinositol (“PI”)-binding specificity of 150 positive proteins, their binding signals were normalized against the corresponding binding signals of phosphatidylcholine (“PC”). Based on the ratios (“PI/PC”), the proteins were grouped into four categories: (A) 30 strong and specific, (B) 43 strong and nonspecific, (C) 19 weak and specific, and (D) 58 weak and nonspecific phosphatidylinositol-binding proteins. The intensity represents the PI/PC signal ratio as shown by the scale in the figure. The column, labeled “10^n” to the right of the PI/PC binding ratios indicates the maximum binding signal intensity (open boxes) and its confidence interval (solid horizontal lines); the numbers indicate the log of the values. Boxes in the three columns to the right of the confidence interval column indicate membrane-associated proteins (“Membrane”), kinases (“Kinase”), and uncharacterized ORFs (“Unknown”), respectively.
To identify PI-binding proteins in yeast, liposomes were used as probes because the liposome provides the most relevant physiological condition to assay the interactors. Six types of liposomes were used. Each contains phosphatidylcholine (“PC”) with 1% (w/w) N-(biotinoyl)-1,2-dihexadecanoyl-sn-glycero-3-phosphoethanolamine, triethylammonium salt (biotin DHPE). The biotinylated lipid serves as a label that can be detected by Cy3-streptavidin (21). In addition to PC, the five other liposomes contain either 5% (w/w) PI(3)P, PI(4)P, PI(3,4)P2, PI(4,5)P2, or PI(3,4,5)P3 (FIG. 3A).
The protein-liposome interaction was assayed as follows. Appropriate amounts of each lipid in chloroform were mixed and dried under nitrogen. The lipid mixture was resuspended in TBS buffer by vortexing. The liposomes were created by sonication. Blocked proteome chips were washed three to five times in PBS buffer, and the extra liquid on the glass surface was removed by tapping the slides vertically on a KIMWIPE™. 200 μl of liposome solution was added to the proteome chip and immediately covered by a hydrophobic plastic cover slip (GRACE BIO-LAB™, USA). After trapped air bubbles were removed, the chip was incubated in a humidity chamber at RT for one hour. To remove the cover slip, the chip was immersed into large volume of PBS buffer (50 ml), so that the slip would float away. The chip was then moved to a second PBS bath (>50 ml) and washed 3×5 min with shaking at RT. After removing extra liquid on the surface of the chip, about 100 μl of Cy3 or Cy5 conjugated streptavidin (PIERCE™, USA; 1:2000 to 1:4000 dilution) was added to the surface and covered by a hydrophobic plastic cover slip (GRACE BIO-LABS™, USA). The chip was incubated for greater than 30 min in the dark at RT. The chip was then washed as described above. To completely remove the liquid on the chip, the chip was spun to dryness at 1500-2000 rpm for 5-10 min at RT.
An algorithm was devised to assist in the identification of positive signals (42). Fifty-two (35%) of the interactors (i.e., lipid-binding proteins) correspond to uncharacterized proteins thus ascribing the first biochemical activities to those proteins.
The interactors (i.e., phospholipid-binding proteins) were grouped in several ways (42). First, the interactors were sorted according to whether they bound lipids strongly or weakly, based on the phospholipid-binding signal relative to the amount of GST (FIG. 4). Slightly more (72%) of the strong lipid binding proteins (FIGS. 4A and 4B) were characterized relative to the weakly binding proteins (54%) (FIGS. 4C and 4D). Many of the strong lipid-binding proteins are membrane-associated, or are predicted to be associated with membranes, whereas fewer of the weaker binding proteins appear to be associated with membranes (FIG. 4, “Membrane” column). […] Moreover, thirteen of the seventeen protein kinases bind very strongly to the phospholipids. […]

Cy3-labeled streptavidin = biological target: T1, Cy3-labeled streptavidin (Streptomyces avidinii, UniProt P22629); experiment: Yeast proteome chip probed with Cy3-labeled streptavidin alone; assay type: binding
T1 construct: purchased Jackson IR, USA
Source text: To test for protein-protein interactions, the yeast proteome was probed with calmodulin (11). Calmodulin is a highly conserved calcium-binding protein involved in many calcium-regulated cellular processes and has many known physical partners (Hook et al., 2001, Annu. Rev. Pharmacol. Toxicol. 41:471). The calmodulin probe was biotinylated, and bound probe was detected using Cy3-labeled streptavidin. As a control, the yeast proteome was probed with Cy3-labeled streptavidin alone.
In addition to the calmodulin-binding targets, one protein, Pyc1p, which bound Cy3 -labeled streptavidin, was also identified. Pyc1p encodes a pyruvate carboxylase 1 homolog that contains a highly conserved biotin-attachment region (Menendez et al., 1998, Yeast 14:647). Thus, as predicted by its sequence, Pyc1p is biotinylated in vivo; and was identified in all experiments using streptavidin detection methods. Thus, proteome microarrays can be used to identify posttranslational modifications of proteins.

T1 sequence (P22629 25-183): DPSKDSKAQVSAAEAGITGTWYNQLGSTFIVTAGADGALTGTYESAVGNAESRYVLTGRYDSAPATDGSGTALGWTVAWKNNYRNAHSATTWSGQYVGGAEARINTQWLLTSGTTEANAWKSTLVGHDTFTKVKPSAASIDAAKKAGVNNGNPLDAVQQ

Row | Molecule | binding to PI(4,5)P2 liposomes on membrane (PI(4,5)P2 liposomes) | identified as lipid-binding interactor [1] | binding of Cy3-labeled streptavidin (Cy3-labeled streptavidin)
1 | B1 | tightly bound PI(4,5)P2 | identified | 
2 | B2 | tightly bound PI(4,5)P2 | identified | 
3 | B3 |  |  | bound
